A word on the stoichiometry N: it is the number of molecules, sites or subunits per partner or assembly.

One substance from PMC10778174 can be followed below.

The target in this experiment is BG505-SOSIP trimer Env (subtype A) (HIV-1 (subtype A, BG505)). Kind of experiment: SEC + other: negative-stain EM; gel-filtration and negative-stain EM of the purified BG505 SOSIP; conditions not given.

On to “BG505-SOSIP trimer Env (subtype A) (complex)”, for which the stoichiometry N stood at 3.
